From paper PMC7317872
Each block holds one substance with its values, some of them ahead of it.

Legend:
Cdh23 EC1-3 (mouse) = assay: SEC; analytical SEC, Superdex 200 increase 10/300, 100 μM injected, 25 mM HEPES, 25 mM KCl, 50 mM NaCl, 2 mM CaCl2, pH 7.5; 4 °C
Cdh23 EC1-2 (WT) (mouse) [1] = target: Cdh23 EC1-2 (WT) (mouse) (UniProt Q99PF4); assay: SAXS; proteins at 10 mg·mL^-1 in solution, SAXSpace instrument; 10 °C (methods)
Cdh23 EC1-2 (WT) (mouse) [2] = target: Cdh23 EC1-2 (WT) (mouse) (UniProt Q99PF4); assay: AUC; sedimentation velocity, 142 000 g, 20 °C, pH 7.6, 25 mM HEPES, 50 mM NaCl, 25 mM KCl, 2 mM CaCl2; EC1-2 WT at 36 μM, EC1-2 E78K at 30 μM or ~440 μM, EC1 at 45 μM
Cdh23 EC1-2 (WT) (mouse) [3] = target: Cdh23 EC1-2 (WT) (mouse) (UniProt Q99PF4); assay: AUC; sedimentation equilibrium at three rotor speeds, 20 °C, pH 7.6, 25 mM HEPES, 50 mM NaCl, 25 mM KCl, 2 mM CaCl2; global fit to monomer-dimer equilibrium (SEDPHAT); dimer to monomers
Cdh23 EC1-2 (WT) (mouse) [4] = target: Cdh23 EC1-2 (WT) (mouse) (UniProt Q99PF4); assay: single-molecule force spectroscopy (AFM); protein anchored by its C terminus to cantilever and to coverslip (sortagging, PEG 5 kDa spacers); seven loading rates, contact time 500 ms; Bell-Evans fit
Cdh23 EC1-2 (WT) (mouse) [5] = target: Cdh23 EC1-2 (WT) (mouse) (UniProt Q99PF4); assay: SEC; analytical SEC, Superdex 200 increase 10/300, 100 μM injected, 25 mM HEPES, 25 mM KCl, 50 mM NaCl, 2 mM CaCl2, pH 7.5; 4 °C
Cdh23 EC1 (WT) (mouse) [6] = target: Cdh23 EC1 (WT) (mouse) (UniProt Q99PF4); assay: AUC; sedimentation velocity, 142 000 g, 20 °C, pH 7.6, 25 mM HEPES, 50 mM NaCl, 25 mM KCl, 2 mM CaCl2; EC1-2 WT at 36 μM, EC1-2 E78K at 30 μM or ~440 μM, EC1 at 45 μM
Cdh23 EC1 (WT) (mouse) [7] = target: Cdh23 EC1 (WT) (mouse) (UniProt Q99PF4); assay: AUC; sedimentation equilibrium at three rotor speeds, 20 °C, pH 7.6, 25 mM HEPES, 50 mM NaCl, 25 mM KCl, 2 mM CaCl2; global fit to monomer-dimer equilibrium (SEDPHAT); dimer to monomers
Cdh23 EC1 (WT) (mouse) [8] = target: Cdh23 EC1 (WT) (mouse) (UniProt Q99PF4); assay: single-molecule force spectroscopy (AFM); protein anchored by its C terminus to cantilever and to coverslip (sortagging, PEG 5 kDa spacers); seven loading rates, contact time 500 ms; Bell-Evans fit

stoichiometry N (Cdh23 EC1-3 (mouse)): 2
Substance: Cdh23 EC1-3 (domain or fragment)

stoichiometry N (Cdh23 EC1-2 (WT) (mouse) [1]): 2 | stoichiometry N (Cdh23 EC1-2 (WT) (mouse) [2]): 2 | Kd (Cdh23 EC1-2 (WT) (mouse) [3]): 18 µM | intrinsic lifetime at zero force (τ0), high-force distribution (Cdh23 EC1-2 (WT) (mouse) [4]): 1220 s | intrinsic lifetime at zero force (τ0), low-force distribution (Cdh23 EC1-2 (WT) (mouse) [4]): 1.86 s | probability of events (Cdh23 EC1-2 (WT) (mouse) [4]): 6% | stoichiometry N (Cdh23 EC1-2 (WT) (mouse) [5]): 2
Substance: Cdh23 EC1-2 (WT) (from UniProt Q99PF4 24-228) (domain or fragment)

stoichiometry N (Cdh23 EC1 (WT) (mouse) [6]): 2 | Kd (Cdh23 EC1 (WT) (mouse) [7]): 52 µM | probability of events (Cdh23 EC1 (WT) (mouse) [8]): 10%
Substance: Cdh23 EC1 (WT) (from UniProt Q99PF4 24-124) (domain or fragment)
